Source: US20140335077A1, “Compositions and Methods for the Treatment of Cancer Using IGF-IR Antagonists and MAPK/ERK Inhibitors” (priority 2013, published 2014)

Key:
Format in all cases: cell-based
DFB = assay: PrestoBlue cell viability, anti-IGF-1R antibody with U0126, DFB (melanoma); details: 48 h
Method: (§1) Cells were incubated in 96 well tissue culture plates and cell viability was measured by PrestoBlue cell viability assay (Invitrogen, CA, USA) according to manufacturer's instructions. Fluorescence was measured with excitation at 560 nm and emission at 590 nm. Cell number was calculated from standard curves of fluorescence measurements from known numbers of cells. Triplicate cultures were performed on all experiments.
(§2) The effects of anti-IGF-1R antibodies/MEK inhibitor combination treatment on viability of different types of tumor cells were investigated using PrestoBlue cell viability assay (Invitrogen, CA, USA) according to manufacturer's instructions. (Table 3).
(§3) Cells were incubated in serum free medium for 12 h followed by pretreatment for 60 min without or with 0.5, 1, 3 or 5 μM of the ERK inhibitor U0126, and then treated without or with 100 ng/ml anti-IGF-1R antibodies (Figitumumab or αIR-3 (Calbiochem, US). Cells were incubated in 96 well tissue culture plates for 48 hours and cell viability was measured by PrestoBlue cell viability assay. Fluorescence was measured with excitation at 560 nm and emission at 590 nm. Cell number was calculated from standard curves of fluorescence measurements from known numbers of cells. Triplicate cultures were performed on all experiments. The inhibition induced by anti-IGF-1R antibodies treated cells was calculated as percentage of untreated cells.

MDA-MB-231 = assay: PrestoBlue cell viability, anti-IGF-1R antibody with U0126, MDA-MB-231 (breast carcinoma); details: MDA-MB-231 cells, 48 h
Method: as §1, §2, §3

BE = assay: PrestoBlue cell viability, anti-IGF-1R antibody with U0126, BE (melanoma); details: 48 h
Method: as §1, §2, §3

OMM 2.3 = assay: PrestoBlue cell viability, anti-IGF-1R antibody with U0126, OMM 2.3 (liver metastasis of uveal melanoma); details: OMM 2.3 cells, 48 h
Method: as §1, §2, §3

A549 = assay: PrestoBlue cell viability, anti-IGF-1R antibody with U0126, A549 (lung cancer); details: 48 h
Method: as §1, §2, §3

DU-145 = assay: PrestoBlue cell viability, anti-IGF-1R antibody with U0126, DU-145 (prostate carcinoma); details: DU-145 cells, 48 h
Method: as §1, §2, §3

H1703 = assay: PrestoBlue cell viability, anti-IGF-1R antibody with U0126, H1703 (lung cancer); details: 48 h
Method: as §1, §2, §3

SKMel5 = assay: PrestoBlue cell viability, anti-IGF-1R antibody with U0126, SKMel5 (melanoma); details: 48 h
Method: as §1, §2, §3

ZR75-1 = assay: PrestoBlue cell viability, anti-IGF-1R antibody with U0126, ZR75-1 (breast carcinoma); details: ZR75-1 cells, 48 h
Method: as §1, §2, §3

SK-OV-3 = assay: PrestoBlue cell viability, anti-IGF-1R antibody with U0126, SK-OV-3 (ovarian carcinoma); details: SK-OV-3 cells, 48 h
Method: as §1, §2, §3

MIAPaCa2 = assay: PrestoBlue cell viability, anti-IGF-1R antibody with U0126, MIAPaCa2 (pancreatic cancer); details: 48 h
Method: as §1, §2, §3

[1] = test system: IGF-1R, AKT and ERK phosphorylation; assay: IGF-1R signaling activation in ES cell lines (WB for P-IGF-1R, P-AKT, P-ERK)
[2] = U0126 0 μM (60 min pretreatment)
[3] = U0126 0.5 μM (60 min pretreatment)
[4] = U0126 1 μM (60 min pretreatment)
[5] = U0126 3 μM (60 min pretreatment)
[6] = U0126 5 μM (60 min pretreatment)
[7] = serum starved ES cells, stimulation up to 60 min

B1: CP-751,871: anti-IGF-1R antibody figitumumab (Pfizer), IGF-1R antagonist (antibody, chains of the INN, looked up)
heavy: EVQLLESGGGLVQPGGSLRLSCTASGFTFSSYAMNWVRQAPGKGLEWVSAISGSGGTTFYADSVKGRFTISRDNSRTTLYLQMNSLRAEDTAVYYCAKDLGWSDSYYYYYGMDVWGQGTTVTVSSASTKGPSVFPLAPCSRSTSESTAALGCLVKDYFPEPVTVSWNSGALTSGVHTFPAVLQSSGLYSLSSVVTVPSSNFGTQTYTCNVDHKPSNTKVDKTVERKCCVECPPCPAPPVAGPSVFLFPPKPKDTLMISRTPEVTCVVVDVSHEDPEVQFNWYVDGVEVHNAKTKPREEQFNSTFRVVSVLTVVHQDWLNGKEYKCKVSNKGLPAPIEKTISKTKGQPREPQVYTLPPSREEMTKNQVSLTCLVKGFYPSDIAVEWESNGQPENNYKTTPPMLDSDGSFFLYSKLTVDKSRWQQGNVFSCSVMHEALHNHYTQKSLSLSPG
light: DIQMTQFPSSLSASVGDRVTITCRASQGIRNDLGWYQQKPGKAPKRLIYAASRLHRGVPSRFSGSGSGTEFTLTISSLQPEDFATYYCLQHNSYPCSFGQGTKLEIKRTVAAPSVFIFPPSDEQLKSGTASVVCLLNNFYPREAKVQWKVDNALQSGNSQESVTEQDSKDSTYSLSSTLTLSKADYEKHKVYACEVTHQGLSSPVTKSFNRGEC
With B1 the “Percentage inhibition of antibody treated cells (100 ng/ml)” value (“Percentage inhibition” for short) (DFB; [2]) was 15%, the “Percentage inhibition” value (DFB; [3]) was 17% and the “Percentage inhibition” value (DFB; [4]) was 24%. For the same molecule, the “Percentage inhibition” value (DFB; [5]) was 45%, the “Percentage inhibition” value (DFB; [6]) was 55% and the “Percentage inhibition” value (MDA-MB-231; [2]) was 8%. The “Percentage inhibition” value (MDA-MB-231; [3]) was 12%, the “Percentage inhibition” value (MDA-MB-231; [4]) was 15% and the “Percentage inhibition” value (MDA-MB-231; [5]) was 22%. For the same molecule, the “Percentage inhibition” value (MDA-MB-231; [6]) was 32%, the “Percentage inhibition” value (BE; [2]) was 22% and the “Percentage inhibition” value (BE; [3]) was 27%. For the same molecule, the “Percentage inhibition” value (BE; [4]) was 32%, the “Percentage inhibition” value (BE; [5]) was 45% and the “Percentage inhibition” value (BE; [6]) was 55%. The “Percentage inhibition” value (OMM 2.3; [2]) was 12%, the “Percentage inhibition” value (OMM 2.3; [3]) was 35% and the “Percentage inhibition” value (OMM 2.3; [4]) was 45%. The “Percentage inhibition” value (OMM 2.3; [5]) was 65%, the “Percentage inhibition” value (OMM 2.3; [6]) was 97% and the “Percentage inhibition” value (A549; [2]) was 40%. The “Percentage inhibition” value (A549; [3]) was 56%, the “Percentage inhibition” value (A549; [4]) was 77% and the “Percentage inhibition” value (A549; [5]) was 88%. The “Percentage inhibition” value (A549; [6]) was 98%, the “Percentage inhibition” value (DU-145; [2]) was 18% and the “Percentage inhibition” value (DU-145; [3]) was 22%. For the same molecule, the “Percentage inhibition” value (DU-145; [4]) was 34%, the “Percentage inhibition” value (DU-145; [5]) was 54% and the “Percentage inhibition” value (DU-145; [6]) was 77%. The “Percentage inhibition” value (H1703; [2]) was 10%, the “Percentage inhibition” value (H1703; [3]) was 15% and the “Percentage inhibition” value (H1703; [4]) was 25%. The “Percentage inhibition” value (H1703; [5]) was 28%, the “Percentage inhibition” value (H1703; [6]) was 32% and the “Percentage inhibition” value (SKMel5; [2]) was 22%. The “Percentage inhibition” value (SKMel5; [3]) was 30%, the “Percentage inhibition” value (SKMel5; [4]) was 35% and the “Percentage inhibition” value (SKMel5; [5]) was 39%. For the same molecule, the “Percentage inhibition” value (SKMel5; [6]) was 42%, the “Percentage inhibition” value (ZR75-1; [2]) was 5% and the “Percentage inhibition” value (ZR75-1; [3]) was 9%. The “Percentage inhibition” value (ZR75-1; [4]) was 12%, the “Percentage inhibition” value (ZR75-1; [5]) was 12% and the “Percentage inhibition” value (ZR75-1; [6]) was 15%. For the same molecule, the “Percentage inhibition” value (SK-OV-3; [2]) was 17%, the “Percentage inhibition” value (SK-OV-3; [3]) was 25% and the “Percentage inhibition” value (SK-OV-3; [4]) was 35%. For the same molecule, the “Percentage inhibition” value (SK-OV-3; [5]) was 55%, the “Percentage inhibition” value (SK-OV-3; [6]) was 67% and the “Percentage inhibition” value (MIAPaCa2; [2]) was 27%. The “Percentage inhibition” value (MIAPaCa2; [3]) was 35%, the “Percentage inhibition” value (MIAPaCa2; [4]) was 55% and the “Percentage inhibition” value (MIAPaCa2; [5]) was 78%. The “Percentage inhibition” value (MIAPaCa2; [6]) was 89%, the AKT phosphorylation [1, 7] was “undetectable” and the IGF-1R phosphorylation [1, 7] was “undetectable”. The ERK phosphorylation ([1]; serum starved cells, up to 60 min, all ES cell lines) was “clear ERK phosphorylation signals”.
